Measured values as given in US20250074996A1.

Target: CD3E on the surface of Jurkat-NFAT-Luc cells (UniProt P07766)
Assay: cell-based or functional assay

CD3E on the surface of Jurkat-NFAT-Luc cells, sequence (P07766 23-207): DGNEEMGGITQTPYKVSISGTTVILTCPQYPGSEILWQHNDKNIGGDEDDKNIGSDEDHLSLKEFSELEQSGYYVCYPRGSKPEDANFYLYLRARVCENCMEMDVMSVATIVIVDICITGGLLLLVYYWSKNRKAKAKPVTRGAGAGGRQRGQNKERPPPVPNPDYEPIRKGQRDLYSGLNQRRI

B1: hz11B7.5/SP34.24 (bispecific antibody, V domains shown)
VH 1: QVQLVQSGAEVKKPGSSVKVSCKASGYTFTTYTMHWVRQAPGQGLEWIGFIIPSSGYTSYNQNFKDKVTLTADKSTSTAYMELSSLRSEDTAVYFCTGGQARAYYPLDYWGQGTLVTVSS
VL 1: EIVMTQSPATLSVSPGERATLSCRASQSIGTTIHWYQQKPGQAPRLLIKYASESISGIPSRFSGSGSGTEFTLTISSLQSEDFAVYYCQQSYNWPRTFGGGTKVEIK
VH 2: EVQLVESGGGLVQPGGSLKLSCAASGFTFNTYAMNWVRQASGKGLEWVGRIRSKYNNYATYYADSVKDRFTISRDDSKSTLYLQMNSLKTEDTAVYYCARHGNFGQSYVSWFAYWGQGTTVTVSS
VL 2: QAVVTQEPSLTVSPGGTVTLTCRSSTGAVTTSNYANWVQQKPGQAPRGLIGGTNKRAPGVPARFSGSLLGDKAALTLLGAQPEDEAEYYCALWYSNLWVFGQGTKLTVL
**Q.** B1 was tested. Which EC50 of Jurkat-NFAT-Luc luciferase activation; tumor cells 8226 did it give?
**A.** Its EC50 of Jurkat-NFAT-Luc luciferase activation; tumor cells 8226 is 5.39 pM.

**Q.** What about the EC50 of Jurkat-NFAT-Luc luciferase activation; tumor cells ARD of the same binder?
**A.** Its EC50 of Jurkat-NFAT-Luc luciferase activation; tumor cells ARD is 2.04 pM.

**Q.** What about the EC50 of Jurkat-NFAT-Luc luciferase activation; tumor cells H929 of the same binder?
**A.** Its EC50 of Jurkat-NFAT-Luc luciferase activation; tumor cells H929 is 2.72 pM.

**Q.** And the EC50 of Jurkat-NFAT-Luc luciferase activation; tumor cells L363?
**A.** Its EC50 of Jurkat-NFAT-Luc luciferase activation; tumor cells L363 is 2.79 pM.

**Q.** And the EC50 of Jurkat-NFAT-Luc luciferase activation; tumor cells MM.1S?
**A.** The EC50 of Jurkat-NFAT-Luc luciferase activation; tumor cells MM.1S was 1.98 pM.

**Q.** And the EC50 of Jurkat-NFAT-Luc luciferase activation; tumor cells U266?
**A.** Its EC50 of Jurkat-NFAT-Luc luciferase activation; tumor cells U266 is 4.09 pM.
